Measurements taken from publication PMC12070071, “The Drosophila pseudokinase Tribbles translocates to the fat body membrane in response to fasting to modulate insulin sensitivity” (Development (Cambridge, England), 2025).
Substitutions are numbered along the chain they refer to.

T1: Drosophila Tribbles activation loop mutant Trbl^SLE/G, yeast two-hybrid bait (Drosophila, UniProt Q9V3Z1 1-484, SLE/G (replacement of E286 with glycine))
T1 construct: also called pDEST32-Trbl^SLE/G; source: yeast two-hybrid fusion (MaV203 yeast)
T1 sequence (looked up): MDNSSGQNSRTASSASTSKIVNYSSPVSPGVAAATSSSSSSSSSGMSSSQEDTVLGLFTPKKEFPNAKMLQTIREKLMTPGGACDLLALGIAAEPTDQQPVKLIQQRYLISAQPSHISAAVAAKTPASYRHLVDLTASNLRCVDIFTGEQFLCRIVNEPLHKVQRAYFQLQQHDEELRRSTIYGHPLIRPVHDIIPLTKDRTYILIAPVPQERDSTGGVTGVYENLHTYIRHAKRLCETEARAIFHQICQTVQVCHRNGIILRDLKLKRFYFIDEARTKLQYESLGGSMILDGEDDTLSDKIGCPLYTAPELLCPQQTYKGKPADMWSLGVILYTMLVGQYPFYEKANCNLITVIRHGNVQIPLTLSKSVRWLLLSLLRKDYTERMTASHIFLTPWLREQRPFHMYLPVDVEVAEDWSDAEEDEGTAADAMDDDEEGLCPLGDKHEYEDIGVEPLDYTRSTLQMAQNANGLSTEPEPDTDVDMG

B1: Drosophila Akt, yeast two-hybrid prey (pDEST22-dAkt) (natural protein, UniProt Q8INB9 1-611, looked up)
chain: MNYLPFVLQRRSTVVASAPAPGSASRIPESPTTTGSNIINIIYSQSTHPNSSPTSGSAEKFSWQQSWPSRTSAAPTHDSGTMSINTTFDLSSPSVTSGHALTEQTQVVKEGWLMKRGEHIKNWRQRYFVLHSDGRLMGYRSKPADSASTPSDFLLNNFTVRGCQIMTVDRPKPFTFIIRGLQWTTVIERTFAVESELERQQWTEAIRNVSSRLIDVGEVAMTPSEQTDMTDVDMATIAEDELSEQFSVQGTTCNSSGVKKVTLENFEFLKVLGKGTFGKVILCREKATAKLYAIKILKKEVIIQKDEVAHTLTESRVLKSTNHPFLISLKYSFQTNDRLCFVMQYVNGGELFWHLSHERIFTEDRTRFYGAEIISALGYLHSQGIIYRDLKLENLLLDKDGHIKVADFGLCKEDITYGRTTKTFCGTPEYLAPEVLDDNDYGQAVDWWGTGVVMYEMICGRLPFYNRDHDVLFTLILVEEVKFPRNITDEAKNLLAGLLAKDPKKRLGGGKDDVKEIQAHPFFASINWTDLVLKKIPPPFKPQVTSDTDTRYFDKEFTGESVELTPPDPTGPLGSIAEEPLFPQFSYQGDMASTLGTSSHISTSTSLASMQ
notes: Akt kinase, Drosophila (dAkt); Akt open reading frame amplified from an Akt cDNA (Origene); source: yeast two-hybrid fusion (MaV203 yeast)
B2: Drosophila Tribbles (Trbl), wild type, yeast two-hybrid fusion (natural protein, UniProt Q9V3Z1 1-484, looked up)
chain: T1 sequence (looked up) with G286E
notes: Tribbles (Trbl), Drosophila pseudokinase; WT Trbl ORF; One molecule for both two-hybrid copies: each copy carries only one of the two tags; also called WT Trbl; pDEST32-Trbl; source: yeast two-hybrid fusion (MaV203 yeast)

Experiments:
[1] = target: T1, Drosophila Tribbles activation loop …; test: two-hybrid; MaV203 yeast; bait in pDEST32, prey in pDEST22; colony growth of co-transformants on media with increasing concentrations of 3-AT (His3 reporter); conditions: partners not purified
[2] = target: B2; test: as above; conditions: partners not purified

Q: How did the “highest 3AT concentration with growth” value [1] turn out when B1 was run?
A: 100 mM 3AT

Q: And the “highest 3AT concentration with growth” value [2]?
A: 50 mM 3AT

Q: With B2 as the binder, how does the “highest 3AT concentration with growth” value [1] read?
A: 100 mM 3AT
